B1: CE115HA000/GLS3000 P95D one-arm antibody (antibody, human IgG1, kappa, L234A L235A, N297A, name in Kabat numbering)
heavy: QVQLVESGGGVVQPGRSLRLSCAASGFTFSNAWMHWVRQAPGKGLEWVAQIKAKSNNYATYYAESVKGRFTISRDDSKNSLYLQMNSLKTEDTAVYYCRYVHYGAYYGVDAWGQGTTVTVSSASTKGPSVFPLAPSSKSTSGGTAALGCLVKDYFPEPVTVSWNSGALTSGVHTFPAVLQSSGLYSLSSVVTVPSSSLGTQTYICNVNHKPSNTKVDKKVEPKSCDKTHTCPPCPAPEAAGGPSVFLFPPKPKDTLMISRTPEVTCVVVDVSHEDPEVKFNWYVDGVEVHNAKTKPREEQYASTYRVVSVLTVLHQDWLNGKEYKCKVSNKALPAPIEKTISKAKGQPREPQVYTLPPSRCELTKNQVSLSCAVKGFYPSDIAVEWESNGQPENNYKTTPPVLDSDGSFFLVSKLTVDKSRWQQGNVFSCSVMHEALHNHYTQKSLSLSPDYKDDDDK
chain: EPKSSDKTHTCPPCPAPELLGGPSVFLFPPKPKDTLMISRTPEVTCVVVDVSHEDPEVKFNWYVDGVEVHNAKTKPREEQYNSTYRVVSVLTVLHQDWLNGKEYKCKVSNKALPAPIEKTISKAKGQPREPQVCTLPPSRDELTKNQVSLWCLVKGFYPSDIAVEWESNGQPENNYKTTPPVLDSDGSFFLYSKLTVDKSRWQQGNVFSCSVMHEALHNRYTQKSLSLSP
light: DIVMTQSPLSLPVTPGEPASISCRSSQSLVHSNRNTYLHWYQQKPGQAPRLLIYKVSNRFSGVPDRFSGSGSGTDFTLKISRVEAEDVGVYYCGQGTQVDYTFGQGTKLEIKRTVAAPSVFIFPPSDEQLKSGTASVVCLLNNFYPREAKVQWKVDNALQSGNSQESVTEQDSKDSTYSLSSTLTLSKADYEKHKVYACEVTHQGLSSPVTKSFNRGEC
notes: one-arm IgG1
B2: CE115HA000/GLS3000 P95E one-arm antibody (antibody, human IgG1, kappa, L234A L235A, N297A, name in Kabat numbering)
heavy: QVQLVESGGGVVQPGRSLRLSCAASGFTFSNAWMHWVRQAPGKGLEWVAQIKAKSNNYATYYAESVKGRFTISRDDSKNSLYLQMNSLKTEDTAVYYCRYVHYGAYYGVDAWGQGTTVTVSSASTKGPSVFPLAPSSKSTSGGTAALGCLVKDYFPEPVTVSWNSGALTSGVHTFPAVLQSSGLYSLSSVVTVPSSSLGTQTYICNVNHKPSNTKVDKKVEPKSCDKTHTCPPCPAPEAAGGPSVFLFPPKPKDTLMISRTPEVTCVVVDVSHEDPEVKFNWYVDGVEVHNAKTKPREEQYASTYRVVSVLTVLHQDWLNGKEYKCKVSNKALPAPIEKTISKAKGQPREPQVYTLPPSRCELTKNQVSLSCAVKGFYPSDIAVEWESNGQPENNYKTTPPVLDSDGSFFLVSKLTVDKSRWQQGNVFSCSVMHEALHNHYTQKSLSLSPDYKDDDDK
chain: EPKSSDKTHTCPPCPAPELLGGPSVFLFPPKPKDTLMISRTPEVTCVVVDVSHEDPEVKFNWYVDGVEVHNAKTKPREEQYNSTYRVVSVLTVLHQDWLNGKEYKCKVSNKALPAPIEKTISKAKGQPREPQVCTLPPSRDELTKNQVSLWCLVKGFYPSDIAVEWESNGQPENNYKTTPPVLDSDGSFFLYSKLTVDKSRWQQGNVFSCSVMHEALHNRYTQKSLSLSP
light: DIVMTQSPLSLPVTPGEPASISCRSSQSLVHSNRNTYLHWYQQKPGQAPRLLIYKVSNRFSGVPDRFSGSGSGTDFTLKISRVEAEDVGVYYCGQGTQVEYTFGQGTKLEIKRTVAAPSVFIFPPSDEQLKSGTASVVCLLNNFYPREAKVQWKVDNALQSGNSQESVTEQDSKDSTYSLSSTLTLSKADYEKHKVYACEVTHQGLSSPVTKSFNRGEC
notes: one-arm IgG1
B3: CE115HA000/GLS3000 P95G one-arm antibody (antibody, human IgG1, kappa, L234A L235A, N297A, name in Kabat numbering)
heavy: QVQLVESGGGVVQPGRSLRLSCAASGFTFSNAWMHWVRQAPGKGLEWVAQIKAKSNNYATYYAESVKGRFTISRDDSKNSLYLQMNSLKTEDTAVYYCRYVHYGAYYGVDAWGQGTTVTVSSASTKGPSVFPLAPSSKSTSGGTAALGCLVKDYFPEPVTVSWNSGALTSGVHTFPAVLQSSGLYSLSSVVTVPSSSLGTQTYICNVNHKPSNTKVDKKVEPKSCDKTHTCPPCPAPEAAGGPSVFLFPPKPKDTLMISRTPEVTCVVVDVSHEDPEVKFNWYVDGVEVHNAKTKPREEQYASTYRVVSVLTVLHQDWLNGKEYKCKVSNKALPAPIEKTISKAKGQPREPQVYTLPPSRCELTKNQVSLSCAVKGFYPSDIAVEWESNGQPENNYKTTPPVLDSDGSFFLVSKLTVDKSRWQQGNVFSCSVMHEALHNHYTQKSLSLSPDYKDDDDK
chain: EPKSSDKTHTCPPCPAPELLGGPSVFLFPPKPKDTLMISRTPEVTCVVVDVSHEDPEVKFNWYVDGVEVHNAKTKPREEQYNSTYRVVSVLTVLHQDWLNGKEYKCKVSNKALPAPIEKTISKAKGQPREPQVCTLPPSRDELTKNQVSLWCLVKGFYPSDIAVEWESNGQPENNYKTTPPVLDSDGSFFLYSKLTVDKSRWQQGNVFSCSVMHEALHNRYTQKSLSLSP
light: DIVMTQSPLSLPVTPGEPASISCRSSQSLVHSNRNTYLHWYQQKPGQAPRLLIYKVSNRFSGVPDRFSGSGSGTDFTLKISRVEAEDVGVYYCGQGTQVGYTFGQGTKLEIKRTVAAPSVFIFPPSDEQLKSGTASVVCLLNNFYPREAKVQWKVDNALQSGNSQESVTEQDSKDSTYSLSSTLTLSKADYEKHKVYACEVTHQGLSSPVTKSFNRGEC
notes: one-arm IgG1
B4: CE115HA000/GLS3000 P95L one-arm antibody (antibody, human IgG1, kappa, L234A L235A, N297A, name in Kabat numbering)
heavy: QVQLVESGGGVVQPGRSLRLSCAASGFTFSNAWMHWVRQAPGKGLEWVAQIKAKSNNYATYYAESVKGRFTISRDDSKNSLYLQMNSLKTEDTAVYYCRYVHYGAYYGVDAWGQGTTVTVSSASTKGPSVFPLAPSSKSTSGGTAALGCLVKDYFPEPVTVSWNSGALTSGVHTFPAVLQSSGLYSLSSVVTVPSSSLGTQTYICNVNHKPSNTKVDKKVEPKSCDKTHTCPPCPAPEAAGGPSVFLFPPKPKDTLMISRTPEVTCVVVDVSHEDPEVKFNWYVDGVEVHNAKTKPREEQYASTYRVVSVLTVLHQDWLNGKEYKCKVSNKALPAPIEKTISKAKGQPREPQVYTLPPSRCELTKNQVSLSCAVKGFYPSDIAVEWESNGQPENNYKTTPPVLDSDGSFFLVSKLTVDKSRWQQGNVFSCSVMHEALHNHYTQKSLSLSPDYKDDDDK
chain: EPKSSDKTHTCPPCPAPELLGGPSVFLFPPKPKDTLMISRTPEVTCVVVDVSHEDPEVKFNWYVDGVEVHNAKTKPREEQYNSTYRVVSVLTVLHQDWLNGKEYKCKVSNKALPAPIEKTISKAKGQPREPQVCTLPPSRDELTKNQVSLWCLVKGFYPSDIAVEWESNGQPENNYKTTPPVLDSDGSFFLYSKLTVDKSRWQQGNVFSCSVMHEALHNRYTQKSLSLSP
light: DIVMTQSPLSLPVTPGEPASISCRSSQSLVHSNRNTYLHWYQQKPGQAPRLLIYKVSNRFSGVPDRFSGSGSGTDFTLKISRVEAEDVGVYYCGQGTQVLYTFGQGTKLEIKRTVAAPSVFIFPPSDEQLKSGTASVVCLLNNFYPREAKVQWKVDNALQSGNSQESVTEQDSKDSTYSLSSTLTLSKADYEKHKVYACEVTHQGLSSPVTKSFNRGEC
notes: one-arm IgG1
B5: CE115HA000/GLS3000 Q90A one-arm antibody (antibody, human IgG1, kappa, L234A L235A, N297A, name in Kabat numbering)
heavy: QVQLVESGGGVVQPGRSLRLSCAASGFTFSNAWMHWVRQAPGKGLEWVAQIKAKSNNYATYYAESVKGRFTISRDDSKNSLYLQMNSLKTEDTAVYYCRYVHYGAYYGVDAWGQGTTVTVSSASTKGPSVFPLAPSSKSTSGGTAALGCLVKDYFPEPVTVSWNSGALTSGVHTFPAVLQSSGLYSLSSVVTVPSSSLGTQTYICNVNHKPSNTKVDKKVEPKSCDKTHTCPPCPAPEAAGGPSVFLFPPKPKDTLMISRTPEVTCVVVDVSHEDPEVKFNWYVDGVEVHNAKTKPREEQYASTYRVVSVLTVLHQDWLNGKEYKCKVSNKALPAPIEKTISKAKGQPREPQVYTLPPSRCELTKNQVSLSCAVKGFYPSDIAVEWESNGQPENNYKTTPPVLDSDGSFFLVSKLTVDKSRWQQGNVFSCSVMHEALHNHYTQKSLSLSPDYKDDDDK
chain: EPKSSDKTHTCPPCPAPELLGGPSVFLFPPKPKDTLMISRTPEVTCVVVDVSHEDPEVKFNWYVDGVEVHNAKTKPREEQYNSTYRVVSVLTVLHQDWLNGKEYKCKVSNKALPAPIEKTISKAKGQPREPQVCTLPPSRDELTKNQVSLWCLVKGFYPSDIAVEWESNGQPENNYKTTPPVLDSDGSFFLYSKLTVDKSRWQQGNVFSCSVMHEALHNRYTQKSLSLSP
light: DIVMTQSPLSLPVTPGEPASISCRSSQSLVHSNRNTYLHWYQQKPGQAPRLLIYKVSNRFSGVPDRFSGSGSGTDFTLKISRVEAEDVGVYYCGAGTQVPYTFGQGTKLEIKRTVAAPSVFIFPPSDEQLKSGTASVVCLLNNFYPREAKVQWKVDNALQSGNSQESVTEQDSKDSTYSLSSTLTLSKADYEKHKVYACEVTHQGLSSPVTKSFNRGEC
notes: one-arm IgG1
B6: CE115HA000/GLS3000 Q90D one-arm antibody (antibody, human IgG1, kappa, L234A L235A, N297A, name in Kabat numbering)
heavy: QVQLVESGGGVVQPGRSLRLSCAASGFTFSNAWMHWVRQAPGKGLEWVAQIKAKSNNYATYYAESVKGRFTISRDDSKNSLYLQMNSLKTEDTAVYYCRYVHYGAYYGVDAWGQGTTVTVSSASTKGPSVFPLAPSSKSTSGGTAALGCLVKDYFPEPVTVSWNSGALTSGVHTFPAVLQSSGLYSLSSVVTVPSSSLGTQTYICNVNHKPSNTKVDKKVEPKSCDKTHTCPPCPAPEAAGGPSVFLFPPKPKDTLMISRTPEVTCVVVDVSHEDPEVKFNWYVDGVEVHNAKTKPREEQYASTYRVVSVLTVLHQDWLNGKEYKCKVSNKALPAPIEKTISKAKGQPREPQVYTLPPSRCELTKNQVSLSCAVKGFYPSDIAVEWESNGQPENNYKTTPPVLDSDGSFFLVSKLTVDKSRWQQGNVFSCSVMHEALHNHYTQKSLSLSPDYKDDDDK
chain: EPKSSDKTHTCPPCPAPELLGGPSVFLFPPKPKDTLMISRTPEVTCVVVDVSHEDPEVKFNWYVDGVEVHNAKTKPREEQYNSTYRVVSVLTVLHQDWLNGKEYKCKVSNKALPAPIEKTISKAKGQPREPQVCTLPPSRDELTKNQVSLWCLVKGFYPSDIAVEWESNGQPENNYKTTPPVLDSDGSFFLYSKLTVDKSRWQQGNVFSCSVMHEALHNRYTQKSLSLSP
light: DIVMTQSPLSLPVTPGEPASISCRSSQSLVHSNRNTYLHWYQQKPGQAPRLLIYKVSNRFSGVPDRFSGSGSGTDFTLKISRVEAEDVGVYYCGDGTQVPYTFGQGTKLEIKRTVAAPSVFIFPPSDEQLKSGTASVVCLLNNFYPREAKVQWKVDNALQSGNSQESVTEQDSKDSTYSLSSTLTLSKADYEKHKVYACEVTHQGLSSPVTKSFNRGEC
notes: one-arm IgG1

target: T1, CD3 epsilon homodimer protein (UniProt P07766 23-126); experiment: SPR (Biacore T200), CD3e homodimer on CM4 chip, antibody as analyte; KD ratio vs unaltered GLS3000;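 also: CD3 epsilon homodimer amine-coupled to the sensor surface, antibodies injected as analyte at 25 °C with HBS-EP+ running buffer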
T1 construct: also called CD3 (CD3 epsilon)
T1 sequence (P07766 23-126): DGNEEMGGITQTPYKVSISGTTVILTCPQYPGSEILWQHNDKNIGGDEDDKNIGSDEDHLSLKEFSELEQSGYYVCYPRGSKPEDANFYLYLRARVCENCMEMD

Binder	KD ratio to GLS3000 [ratio]
B1	2.37
B2	1.01
B3	1.94
B4	11.7
B5	0.89
B6	11.1

From patent US20240270846A1 (published 2024)
